Entries after “also recorded” stand apart in the source; their conditions may differ.

Series [1] relates to canine carotid artery thrombosis model. Briefly: Reoccluding canine carotid artery thrombosis model. Format: in vivo. An excerpt:
The model of carotid artery thrombosis in the anesthetized canine described is a modification of one developed for the study of experimentally-induced coronary artery thrombosis [Romson, J. L. et al., Thromb. Res. 17:841 (1980)]. The experimental procedure results in the formation of a platelet rich intravascular thrombus at the site of an electrolytically-induced endothelial lesion in proximity to a distal arterial stenosis. The carotid artery is selected for the experimental model, thereby allowing one vessel to be used as a control and the other to be used after administration of the thrombolytic and antithrombotic therapy. APSAC (anisoylated plasminogen streptokinase activator complex) has been used as the thrombolytic agent successfully in this model. […] Parameters which are recorded include repeated measures of: phasic and mean carotid artery blood flow velocity using an ultrasonic flow probe, time to thrombotic occlusion, time to recannulization, ex vivo platelet aggregation, prothrombin time, thrombin time, activated partial thromboplastin time, red cell and white cell counts, hematocrit, EKG profile and body temperature, before and after administration of APSAC or APSAC plus CN to separate groups of animals.
Conditioned male mongrel dogs (8-10 kg) have been used for all in vivo studies. […] Arterial blood pressure is monitored from the cannulated femoral artery with the use of a blood pressure transducer. […] Blood flow velocity in the carotid vessels is monitored continuously. […]
Electrolytic injury to the intimal surface of each carotid vessel is accomplished with the use of an intravascular electrode. […] The current delivered to each vessel is monitored continuously and maintained at 300 μA. […]

For the next series, the system named is T24-β3 neg. cells. Briefly: Adhesion of T24-β3 neg. cells to immobilized vitronectin. Format: cell-based, human. Particulars: FIG. 19 C, D. The procedure: Experiment 1. Cell adhesion assay: Human bladder carcinoma T24 cells were purchased from ATCC, and grown in RPMI1640 medium containing 5% fetal bovine serum. T24-β3 neg. cells were isolated by 6 rounds of negative FACS selection with anti-αvβ3 monoclonal antibody (mAb) LM609. FACS analysis was then performed as follows. The cells were resuspended in 1% BSA/PBS at a density of 1×10^7/ml. Aliquots of 100 μl were incubated with anti-αvβ3 mAb 7E3 or anti-αvβ5 mAb P1F6 (final concentration 5 μg/ml) at room temperature for 30 minutes. The cells were washed twice and resuspended in 1% BSA/PBS. Goat anti-mouse IgG conjugated with FITC was added to the suspension at a final titer of 1:200. After 30 minutes incubation at room temperature in darkness, unbound FITC-conjugated IgG was washed off, and the fluorescent intensity of the cells was analyzed using flow cytometry (FACScan, Becton Dickinson, Bedford, Mass.). Tests were performed in duplicate and the experiment was repeated three times. The results clearly indicate that T24 cells express both integrins αvβ3 (major) and αvβ5 (minor), but T24-β3 neg. cells only express αvβ5 (FIG. 18)
Individual wells of 96-well plates were coated at 4° C. overnight with 100 μl of vitronectin (1 μg/well). […] Cell adhesion was quantified either by CellTiter 96™ Aqueous Proliferation Assay kit (Promega, Madison, Wis.). […]

In the next series the target is purified (GP)IIb/IIIa (Homo sapiens, UniProt P05106+P08514). Briefly: Fibrinogen-(GP)IIb/IIIa ELISA. The format is binding. An excerpt:
Several lines of evidence indicate that CN inhibits platelet aggregation by binding specifically to the (GP)IIb/IIIa integrin receptor. […] Additionally, the partial amino acid sequence of CN indicates considerable similarity with other disintegrins known to bind to (GP)IIb/IIIa. Finally, CN blocks 7E3 binding to (GP)IIb/IIIa. 7E3 is a murine monoclonal antibody that specifically binds to (GP)IIb/IIIa, thereby inhibiting human and canine platelet aggregation [Coller, B. S. et al., J. Clin. Invest. 72:325 (1983)].

B1: contortrostatin (protein)
chain: DAPANPCCDAATCKLTTGSQCADGLCCDQCKFMKEGTVCRRARGDDLDDYCNGISAGCPRNPFHA
Turning to B1, the “recovery of platelet counts” value in series [1] (by the conclusion of the experimental procedure) is recorded as 30-40 % of the baseline value. Also, the “drop in platelet counts” value in series [1] (during experiment, APSAC plus CN (0.155 mg/kg)) was 10-20 % of the baseline value. The “changes in mean arterial blood pressure or mean heart rate” value in series [1] (following infusion of CN) is on record as “essentially no changes”. The “adhesion of T24-β3 neg. cells to vitronectin, in words” value in the series with T24-β3 neg. cells is “completely inhibited adhesion; also recorded: inhibits adhesion of T24-β3 neg. completely”. In addition, the “(GP)IIb/IIIa binding to immobilized fibrinogen” value with purified (GP)IIb/IIIa was “effectively blocks (GP)IIb/IIIa binding”.
